This passage reports binding result and EC50 results from patent publication US20220315648A1 (AC IMMUNE, published 2022).

Numbering of substitutions follows the chain as printed. No end group written: not given here. *: point of attachment. Biotin = O=C1N[C@H]2[C@H](CS[C@H]2CCCCC(=O)*)N1

T1: TP-40 (human)
T1 peptide: Biotin-NNQNQGNMQREPNQA

T2: TP-21 (human)
T2 peptide: Biotin-KQSQDEPLRSRKVFV

T3: TDP-6 (human)
T3 construct: One of the 40-66 aa linear peptides; also called TDP-43 peptide 140-200
T3 peptide: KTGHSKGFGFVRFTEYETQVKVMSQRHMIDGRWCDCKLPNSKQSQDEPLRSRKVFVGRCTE

T4: TP-48 (human)
T4 construct: 23 residues
T4 peptide: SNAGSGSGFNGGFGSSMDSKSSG

T5: TP-23 (human)
T5 peptide: Biotin-TEDMTEDELREFFSQ

B1: ACI-7069-636E5-Ab1 (antibody, IgG2b, V domains shown)
VH: EVHLVESGGDLVMPGGSLKLSCAASGFTFSNYGMSWVRQTPDKRLEWVATISSGGKYINYLDSLKGRFTISRDNAKNTLYLQMSSLKSEDTAMYYCAKDYGSGWAWFAYWGQGTLVTVSA
VL: QLVLTQSSSASFSLGASAKLTCTLSSQHSTYTIEWYQQQPLKPPKYVMELKKDGSHSTGDGIPDRFSGSSSGADRYLSISNIQPEDEAIYICGVGDTIKEQFVYVFGGGTKVTVL
notes: also called 636E5B8
B2: ACI-7069-642D12-Ab1 (antibody, IgG2b, V domains shown)
VH: EVQLQQSGAELVKPGASVRLSCTASGFNIKDPYMHWVRQRPKQGLEWIGRIDPADGNTKYDPKFQGKATLTADTSSNVAYLHLSSLTSEDTAVYYCARFYGSSHWYFDVWGAGTTVTVSS
VL: DIKMTQSPSSMYASLGERVTITCKASQDIKRYLSWYQQKPWKSPKILIYYATSLADGVPSRFSGTGSGQDYSLTISSLESDDVATYYCLQQGESPYTFGGGTKLEIK
notes: also called 642D12B4
B3: ACI-7069-634H10-Ab2 (antibody, IgG2b, V domains shown)
VH: EVQLQQSGAELVKPGASVRLSCTASGFNIKDTYMHWVKQRPEQGLEWIGRIDPANSNTKFDPKFQGKATITSDTSSNTAYLQLSSLTSEDTAVYYCARFYGGSHWYFDVWGAGTTVTVSS
VL: B2 VL with R31S, Q38H, I46A, T65S, V83T
notes: also called 634H10H7
B4: ACI-7069-642A10-Ab1 (antibody, IgG1, V domains shown)
VH: QVQLQQPGAELVKPGASVKLSCKASGYTFTKYWMHWVKQRPGQGLEWIGEINPSNGRTNYNEKFKSKATLTVDKSSSTAYMQLSSLTSEDSAVYYCARYMDYWGQGTSVTVSS
VL: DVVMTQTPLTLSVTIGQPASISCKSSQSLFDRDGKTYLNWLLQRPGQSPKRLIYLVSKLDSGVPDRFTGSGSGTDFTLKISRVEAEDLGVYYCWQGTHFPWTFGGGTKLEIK
notes: also called 642A10B11
B5: ACI-7071-809F12-Ab1 (antibody, IgG2b, V domains shown)
VH: QVQLKESGPGLVAPSQSLSITCTVSGFSLNRNGVQWVRQPPGKGLEWLGVIWPGGSTNCNSALMSRLSISKDNSKSQVFLKMNSLHTDDTGIYYCARVGGNYVWDYNNYAWGQGTLVTVSA
VL: DVLMTQTPLSLPVSLGDQASISCRSSQNIVHSIGNTYLEWYLQKPGQSPKLLIYKVSNRFSGVPDRFSGSGSGTDFTLKISRVEAEDLGVYYCFQGSHVPYTFGGGTKLEIR
notes: also called 809F12D8
B6: ACI-7069-641H1-Ab2 (antibody, IgG2b, V domains shown)
VH: QVQLKESGPGLVAPSQSLSITCTVSGFSLTNYGVHWVRQPPGKGLEWLGLMWAGGSTNYNSALMSRLSISKDNSKSQVFLKMNSLQTDDTAMYYCVIYRTGFAYWGQGTLVTVSA
VL: B5 VL with N28S, S32T, Y101F, G105S, R112K
notes: also called 641H1E7
B7: ACI-7069-646B7-Ab1 (antibody, IgG2b, V domains shown)
VH: B6 VH with Y32F, L50I, R99K
VL: B5 VL with N28S, S32A, Y101F, G105S, R112K
notes: also called 646B7F7
B8: ACI-7071-809D9-Ab2 (antibody, IgG2b, V domains shown)
VH: QVQLQQSGAELVRPGVSVKISCKGSGYKFTDYSMHWVKQSHTKSLEWIGVISTYYGDTTYNQKFKGKATITVDKSSSTAYMELARLTSEDSAIYYCATYGNFPASFSYWGQGTLVTVSA
VL: DIVMTQAAPSIPVTPGESVSISCRSSKSLLHSNGNTYLYWFLQRPGQSPQLLIYRMSNLASGVPDRFSGSGSGTAFTLRISRVEAEDVGVYYCMQHLEYPFTFGSGTKLEIK
notes: also called 809D9C2
B9: ACI-7069-633B12-Ab1 (antibody, IgG2b, V domains shown)
VH: EVQLQQSGPELVKPGASVKISCKTSGFTFTEYSMHWVKQSHGKSLEWIGGINPNNGGTSYNQKFKGKATLTVDKSSSTAYMELRSLTSEDSAVYYCARESWGQGTTLTVSS
VL: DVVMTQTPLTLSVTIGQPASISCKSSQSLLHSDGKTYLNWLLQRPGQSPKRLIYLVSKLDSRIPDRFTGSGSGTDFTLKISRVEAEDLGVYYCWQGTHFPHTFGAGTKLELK
notes: also called 633B12C8
B10: ACI-7069-631B2-Ab1 (antibody, IgG1, V domains shown)
VH: B9 VH with F27Y, M34I, K43E, N54D, S59R, E82D
VL: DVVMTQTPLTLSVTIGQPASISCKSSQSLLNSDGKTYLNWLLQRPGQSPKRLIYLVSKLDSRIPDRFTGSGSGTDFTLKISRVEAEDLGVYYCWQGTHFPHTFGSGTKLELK
notes: also called 631B2A2
B11: ACI-7071-712A6-Ab1 (antibody, IgG2c, V domains shown)
VH: QVQLQQSGAELVKPGTSVKLSCKASAYTFTEYTIHWIKQKSGQGLEWIGWFHPENDNIKYNENFKDKATLTADRSSSTVYMELSRLTSEDSAVYFCAGTSGYGDYWGQGTTLTVSS
VL: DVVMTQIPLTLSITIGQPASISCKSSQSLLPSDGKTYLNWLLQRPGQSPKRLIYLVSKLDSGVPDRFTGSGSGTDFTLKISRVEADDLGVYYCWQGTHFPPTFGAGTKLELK
notes: Mouse hybridoma antibody, IgG2c; also called 712A6B10

T6 sequence (Q13148 whole entry): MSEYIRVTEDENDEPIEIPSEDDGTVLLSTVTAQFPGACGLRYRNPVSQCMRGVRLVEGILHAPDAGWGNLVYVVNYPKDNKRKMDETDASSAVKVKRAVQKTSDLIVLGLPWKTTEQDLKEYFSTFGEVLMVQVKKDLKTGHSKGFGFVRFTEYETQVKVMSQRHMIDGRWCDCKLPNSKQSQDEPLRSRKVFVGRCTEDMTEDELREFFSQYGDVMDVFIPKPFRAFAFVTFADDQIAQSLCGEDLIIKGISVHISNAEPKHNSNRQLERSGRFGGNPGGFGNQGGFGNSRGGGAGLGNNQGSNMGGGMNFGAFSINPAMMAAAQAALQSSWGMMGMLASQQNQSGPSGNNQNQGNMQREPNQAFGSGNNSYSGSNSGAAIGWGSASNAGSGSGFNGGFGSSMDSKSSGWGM

One assay addresses T1, TP-40. Kind of assay: indirect ELISA on TDP-43 peptides, antibody at 1 µg/ml. Background: In an ELISA, binding on a coated surface is turned into a signal by an enzyme label.
Take B1: the binding result is given as “binds”.

Another assay deals with T2, TP-21. The description is as above.
As to B2, the binding result was “binds”.

The next assay addresses T3, TDP-6. Described as above.
Take B3: the binding result is recorded as “binds”.

The target of a further assay is T4, TP-48. Described as above.
On to B4, for which the binding result was “binds”.

The target of the next assay is T5, TP-23. The assay is described as above.
As for B5, the binding result is listed as “binds”.
On the same count and under the same terms, under B6 stands “binds”; under B7, “binds”.
Same read-out and setting: with B8 the entry was “binds”.

The next assay concerns the target T6, human full length TDP-43 (FL TDP-43), recombinant, soluble (human, UniProt Q13148 1-414).
T6 construct: Antigen of Luminex, ELISA and SPR (soluble form); also called TDP-43 protein; Soluble TDP-43
In words: Luminex, beads conjugated to FL TDP-43, antibody serial dilution. As for the experimental part: Mice were euthanized and fusion with myeloma cells was performed using splenocytes from four individual mice. Screening for antibodies from the successfully fused hybridoma cell lines were performed as follows. Diluted (1:32) cell culture supernatants were analyzed using Luminex bead-based multiplex assay (Luminex, The Netherlands). Luminex beads were conjugated to FL TDP-43 and with capturing IgGs with anti-mouse IgG-Fc antibodies specific for the IgG1, IgG2a, IgG2b, IgG2c, and IgG3 subclasses (Jackson Immunoresearch, USA). Binding to beads conjugated to FL TDP-43 identified 386 hits derived from mice immunized with the FL TDP-43 liposomal vaccine.
Luminex assays with serial dilution of antibodies were performed as described before to determine half maximal effective concentration (EC50) of binding of antibodies to FL TDP-43. In summary, all tested antibodies bind to full length TDP-43 with high affinity.
Consider B5, for which the half-maximal effective concentration (EC50) was under 10 µM.
On the same count and under the same terms, under B6 stands under 10 µM.
As to B7, the half-maximal effective concentration (EC50) was under 10 µM.
In the case of B8, the EC50 is under 10 µM.
For B1, the concentration giving a half-maximal response (EC50) is under 10 µM.
On the same count and under the same terms, with B9 the figure was under 10 µM; with B10, under 10 µM.
Take B11: the EC50 worked out at 180 µM.
Same read-out and setting: under B3 stands under 10 µM.
On the same count and under the same terms, with B2 the figure was under 10 µM.

For orientation: EC50 means the midpoint of the concentration-response curve.
